Data: publication PMC9587022 (2022)

B1: HA-tagged UL97, wild type, full length (pCGN-HA-UL97) [human cytomegalovirus (HCMV)] / Flag-tagged 14-3-3 η [human] (parent complex)
chain 1: MSSALRSRARSASLGTTTQGWDPPPLRRPSRARRRQWMREAAQAAAQAAVQAAQAAAAQVAQAHVDENEVVDLMADEAGGGVTTLTTLSSVSTTTVLGHATFSACVRSDVMRDGEKEDAASDKENLRRPVVPSTSSRGSAASGDGYHGLRCRETSAMWSFEYDRDGDVTSVRRALFTGGSDPSDSVSGVRGGRKRPLRPPLVSLARTPLCRRRVGGVDAVLEENDVELRAESQDSAVASGPGRIPQPLSGSSGEESATAVEADSTSHDDVHCTCSNDQIITTSIRGLTCDPRMFLRLTHPELCELSISYLLVYVPKEDDFCHKICYAVDMSDESYRLGQGSFGEVWPLDRYRVVKVARKHSETVLTVWMSGLIRTRAAGEQQQPPSLVGTGVHRGLLTATGCCLLHNVTVHRRFHTDMFHHDQWKLACIDSYRRAFCTLADAIKFLNHQCRVCHFDITPMNVLIDVNPHNPSEIVRAALCDYSLSEPYPDYNERCVAVFQETGTARRIPNCSHRLRECYHPAFRPMPLQKLLICDPHARFPVAGLRRYCMSELSALGNVLGFCLMRLLDRRGLDEVRMGTEALLFKHAGAACRALENGKLTHCSDACLLILAAQMSYGACLLGEHGAALVSHTLRFVEAKMSSCRVRAFRRFYHECSQTMLHEYVRKNVERLLATSDGLYLYNAFRRTTSIICEEDLDGDCRQLFPE
chain 2: MGDREQLLQRARLAEQAERYDDMASAMKAVTELNEPLSNEDRNLLSVAYKNVVGARRSSWRVISSIEQKTMADGNEKKLEKVKAYREKIEKELETVCNDVLSLLDKFLIKNCNDFQYESKVFYLKMKGDYYRYLAEVASGEKKNSVVEASEAAYKEAFEISKEQMQPTHPIRLGLALNFSVFYYEIQNAPEQACLLAKQAFDDAIAELDTLNEDSYKDSTLIMQLLRDNLTLWTSDQQDEEAGEGN
B2: HA-tagged UL97, wild type, full length (pCGN-HA-UL97) [human cytomegalovirus (HCMV)] / Flag-tagged 14-3-3 β [human] (parent complex)
chain 1: B1 chain 1
chain 2: MTMDKSELVQKAKLAEQAERYDDMAAAMKAVTEQGHELSNEERNLLSVAYKNVVGARRSSWRVISSIEQKTERNEKKQQMGKEYREKIEAELQDICNDVLELLDKYLIPNATQPESKVFYLKMKGDYFRYLSEVASGDNKQTTVSNSQQAYQEAFEISKKEMQPTHPIRLGLALNFSVFYYEILNSPEKACSLAKTAFDEAIAELDTLNEESYKDSTLIMQLLRDNLTLWTSENQGDEGDAGEGEN
B3: HA-tagged UL97, wild type, full length (pCGN-HA-UL97) [human cytomegalovirus (HCMV)] / Flag-tagged 14-3-3 γ [human] (parent complex)
chain 1: B1 chain 1
chain 2: MVDREQLVQKARLAEQAERYDDMAAAMKNVTELNEPLSNEERNLLSVAYKNVVGARRSSWRVISSIEQKTSADGNEKKIEMVRAYREKIEKELEAVCQDVLSLLDNYLIKNCSETQYESKVFYLKMKGDYYRYLAEVATGEKRATVVESSEKAYSEAHEISKEHMQPTHPIRLGLALNYSVFYYEIQNAPEQACHLAKTAFDDAIAELDTLNEDSYKDSTLIMQLLRDNLTLWTSDQQDDDGGEGNN
B4: HA-tagged UL97, wild type, full length (pCGN-HA-UL97) [human cytomegalovirus (HCMV)] / Flag-tagged 14-3-3 ε [human] (parent complex)
chain 1: B1 chain 1
chain 2: MDDREDLVYQAKLAEQAERYDEMVESMKKVAGMDVELTVEERNLLSVAYKNVIGARRASWRIISSIEQKEENKGGEDKLKMIREYRQMVETELKLICCDILDVLDKHLIPAANTGESKVFYYKMKGDYHRYLAEFATGNDRKEAAENSLVAYKAASDIAMTELPPTHPIRLGLALNFSVFYYEILNSPDRACRLAKAAFDDAIAELDTLSEESYKDSTLIMQLLRDNLTLWTSDMQGDGEEQNKEALQDVEDENQ
B5: HA-tagged UL97, wild type, full length (pCGN-HA-UL97) [human cytomegalovirus (HCMV)] / Flag-tagged 14-3-3 θ [human] (parent complex)
chain 1: B1 chain 1
chain 2: MEKTELIQKAKLAEQAERYDDMATCMKAVTEQGAELSNEERNLLSVAYKNVVGGRRSAWRVISSIEQKTDTSDKKLQLIKDYREKVESELRSICTTVLELLDKYLIANATNPESKVFYLKMKGDYFRYLAEVACGDDRKQTIDNSQGAYQEAFDISKKEMQPTHPIRLGLALNFSVFYYEILNNPELACTLAKTAFDEAIAELDTLNEDSYKDSTLIMQLLRDNLTLWTSDSAGEECDAAEGAEN

Variants of: B1
Assay: co-immunoprecipitation (IP anti-HA, Western blot quantification); U-2 OS cells; WT UL97 0.6 μg, mutant 1.2 μg expression vector; 1 μg Flag-14-3-3 plasmid; read off a plot

Variant | ratio to parent
chain 1 K355Q | ~0.32
chain 1 S13A | ~0.17

Variants of: B2
Assay: as above

Variant | ratio to parent
chain 1 S13A | ~0.14
chain 1 K355Q | ~0.45

Variants of: B3
Assay: as above

Variant | ratio to parent
chain 1 K355Q | ~0.62
chain 1 S13A | ~0.07

Variants of: B4
Assay: as above

Variant | ratio to parent
chain 1 S13A | ~0.06
chain 1 K355Q | ~0.42

Variants of: B5
Assay: as above

Variant | ratio to parent
chain 1 S13A | ~0.05
chain 1 K355Q | ~0.2
